Laboratory results as given in the Human Domainome abundance scans (Beltran et al. 2025).
± gives the uncertainty stated by the source.

B1: Androgen receptor, residues 557 to 632; numbered along this chain, P10275 (parent)
chain: QKTCLICGDEASGCHYGALTCGSCKVFFKRAAEGKQKYLCASRNDCTIDKFRRKNCPSCRLRKCYEAGMTLGARKL

Variants of: B1
Assay: abundance fitness (aPCA) (normalised: wild type 0, dead -1); higher = more abundant; growth selection in yeast, the domain comes from the species named
Settings: Homo sapiens

QKTCLICGDEASGCHYGALTCGSCKVFFKRAAEGKDKYLCASRNDCTIDKFRRKNCPSCRLRKCYEAGMTLGARKL [Q36D] and QKTCLICGDEAYGCHYGALTCGSCKVFFKRAAEGKQKYLCASRNDCTIDKFRRKNCPSCRLRKCYEAGMTLGARKL [S12Y] are within error of each other in abundance fitness: 0.048 ± 0.074 for the first, -0.031 ± 0.11 for the second.

QKTCLICGDEASGCHYGALTCGSCKVFFKRAAEGKQKYLCASRNDCTISKFRRKNCPSCRLRKCYEAGMTLGARKL [D49S] and QKTCLICGDEASGCHYGALTCGSCKVFFKRAAEGKQKYLCQSRNDCTIDKFRRKNCPSCRLRKCYEAGMTLGARKL [A41Q] are within error of each other in abundance fitness: -0.139 ± 0.063 for the first, -0.081 ± 0.084 for the second.

Going from QKTCLICGDEASGCHYGLLTCGSCKVFFKRAAEGKQKYLCASRNDCTIDKFRRKNCPSCRLRKCYEAGMTLGARKL [A18L] to QKTCLICTDEASGCHYGALTCGSCKVFFKRAAEGKQKYLCASRNDCTIDKFRRKNCPSCRLRKCYEAGMTLGARKL [G8T], the abundance fitness falls from -0.155 ± 0.034 to -0.31 ± 0.11.

QKTCLICGDEASGCHYGALTCGSCKVFFKRAAEGKQKYLCASRNDCTIDKFRRKNCPSCRLRKCYEAGMTLYARKL [G72Y] and QKTCLICGIEASGCHYGALTCGSCKVFFKRAAEGKQKYLCASRNDCTIDKFRRKNCPSCRLRKCYEAGMTLGARKL [D9I] are within error of each other in abundance fitness: -0.074 ± 0.13 for the first, -0.109 ± 0.13 for the second.

QKTCLICGDEASGCDYGALTCGSCKVFFKRAAEGKQKYLCASRNDCTIDKFRRKNCPSCRLRKCYEAGMTLGARKL [H15D] and QKTCLICGDEASGCHYGALTCGSCKVFFKRAAEGKQKHLCASRNDCTIDKFRRKNCPSCRLRKCYEAGMTLGARKL [Y38H] are within error of each other in abundance fitness: -0.177 ± 0.13 for the first, -0.231 ± 0.095 for the second.

First: QKTCLICGDEASGCHYGALTCGSCKVFFKRAAEGKQKYLKASRNDCTIDKFRRKNCPSCRLRKCYEAGMTLGARKL [C40K]
Second: QKTCLICGDEASGCHYGALTCGSCKVFFKRAAEGKQVYLCASRNDCTIDKFRRKNCPSCRLRKCYEAGMTLGARKL [K37V]
The abundance fitness of the first is lower: -0.632 ± 0.26 for the first, -0.058 ± 0.046 for the second.

Compared with QKTCLICGDEASGCHYGALTCGSCKVWFKRAAEGKQKYLCASRNDCTIDKFRRKNCPSCRLRKCYEAGMTLGARKL [F27W], QKTCLICGDEASGCHYGALTCGSCKVFFKRAAEGKQKYLCASRNDCTIDKFRRKTCPSCRLRKCYEAGMTLGARKL [N55T] is higher in abundance fitness: -0.387 ± 0.046 for the first, -0.012 ± 0.065 for the second.

Going from QKTCLICGDEASGCHYGALTCGSCKVFFKRAAEGKQKYLCASRNDCTIDKFRRKACPSCRLRKCYEAGMTLGARKL [N55A] to QKTCLICGDEASGCHYPALTCGSCKVFFKRAAEGKQKYLCASRNDCTIDKFRRKNCPSCRLRKCYEAGMTLGARKL [G17P], the abundance fitness falls from 0.089 ± 0.096 to -0.691 ± 0.092.

First: QKTCLICGDEASGCHLGALTCGSCKVFFKRAAEGKQKYLCASRNDCTIDKFRRKNCPSCRLRKCYEAGMTLGARKL [Y16L]
Second: QKTCLICGDEASGCHYGALTCGSCKVFFKRAAEGKQKYLCASRNDCTIDSFRRKNCPSCRLRKCYEAGMTLGARKL [K50S]
The abundance fitness of the first is lower: -0.275 ± 0.032 for the first, -0.13 ± 0.087 for the second.

QKTCLICGDEASGCHYGALTCGSCKVFFKRAAEGKQKYLCASRNDCEIDKFRRKNCPSCRLRKCYEAGMTLGARKL [T47E] and QKTCLICGDEASGCHYGALTCGSCKVFFKRAAEGKQKYLCASRNDCTIDKFRRKQCPSCRLRKCYEAGMTLGARKL [N55Q] are within error of each other in abundance fitness: -0.059 ± 0.041 for the first, -0.076 ± 0.081 for the second.

QKTCLICGDEASGCHYGALTCGSCKVFFKRMAEGKQKYLCASRNDCTIDKFRRKNCPSCRLRKCYEAGMTLGARKL [A31M] and QKTCLICGDEASGCHYGALTCGSCKVFFKRAAEGKQKYLCASRNDCTIDKFRRKYCPSCRLRKCYEAGMTLGARKL [N55Y] are within error of each other in abundance fitness: -0.182 ± 0.082 for the first, -0.067 ± 0.063 for the second.

First: QKTCLICGDEASGCHYGALTCGSCKVFFKRAAEGKQKYLCASRNACTIDKFRRKNCPSCRLRKCYEAGMTLGARKL [D45A]
Second: QKTCLICGDEASGCHYGALTCGSCKVFFKRAAEGKQKYLCASRNDCTIDKFRRKNRPSCRLRKCYEAGMTLGARKL [C56R]
The abundance fitness of the first is higher: -0.094 ± 0.074 for the first, -1.02 ± 0.21 for the second.

QKTCLICGDEASGCHYGALTCGSCKVFFKRAAEGKWKYLCASRNDCTIDKFRRKNCPSCRLRKCYEAGMTLGARKL [Q36W] and QKTCLICGDEACGCHYGALTCGSCKVFFKRAAEGKQKYLCASRNDCTIDKFRRKNCPSCRLRKCYEAGMTLGARKL [S12C] are within error of each other in abundance fitness: -0.251 ± 0.065 for the first, -0.305 ± 0.15 for the second.

Going from QKTCLICGDEASGCHGGALTCGSCKVFFKRAAEGKQKYLCASRNDCTIDKFRRKNCPSCRLRKCYEAGMTLGARKL [Y16G] to QKTCLICGDEASGCHYGALTCGSCKVFFKRAAEGKQKYLCASRNDCTIDKFRRKNCPSCRLRKRYEAGMTLGARKL [C64R], the abundance fitness falls from -0.432 ± 0.034 to -1.06 ± 0.32.

QKTCEICGDEASGCHYGALTCGSCKVFFKRAAEGKQKYLCASRNDCTIDKFRRKNCPSCRLRKCYEAGMTLGARKL [L5E] and QKTCLICGDEASGCHYGAATCGSCKVFFKRAAEGKQKYLCASRNDCTIDKFRRKNCPSCRLRKCYEAGMTLGARKL [L19A] are within error of each other in abundance fitness: -0.071 ± 0.062 for the first, -0.063 ± 0.049 for the second.

QKTCLICGDEASGCHYGALTCGSCKVFFKRAAEGKQKYLPASRNDCTIDKFRRKNCPSCRLRKCYEAGMTLGARKL [C40P] and QKTHLICGDEASGCHYGALTCGSCKVFFKRAAEGKQKYLCASRNDCTIDKFRRKNCPSCRLRKCYEAGMTLGARKL [C4H] are within error of each other in abundance fitness: -0.756 ± 0.18 for the first, -0.851 ± 0.4 for the second.

QKTCLICGDEASGCHYGAMTCGSCKVFFKRAAEGKQKYLCASRNDCTIDKFRRKNCPSCRLRKCYEAGMTLGARKL [L19M] and QKTCLICGDEASGCHYGALTCGSCKVFFKRAAEGKQQYLCASRNDCTIDKFRRKNCPSCRLRKCYEAGMTLGARKL [K37Q] are within error of each other in abundance fitness: -0.03 ± 0.075 for the first, 0.079 ± 0.081 for the second.

QKTCLICGDEASGCHYGALTCPSCKVFFKRAAEGKQKYLCASRNDCTIDKFRRKNCPSCRLRKCYEAGMTLGARKL [G22P] and QKTCLICGDEASGCHYGALTCGSCKVFFKRAAEGKQKYLCASRNDCTIDKFRRKNCPSCRLRKCDEAGMTLGARKL [Y65D] are within error of each other in abundance fitness: -0.026 ± 0.071 for the first, -0.17 ± 0.17 for the second.
